Experiment [1] has as its target T1, PDL1 on A-375 melanoma cells, HCT-15 colorectal cancer cells and A549 lung cancer cells (UniProt Q9NZQ7 19-290, limits assumed).
T1 construct: whole, on cells
Nature of the experiment: flow cytometry, A549 cells, MFI [panel B]. Here is the method:
(2) The tumor cells were diluted to 2×10⁶/ml with PBS and added to a 1.5 ml EP tube at a volume of 100 μl/tube, and goat serum was added thereto at 10 μl/tube. The cells were blocked at 4° C. for 30 min. The serially diluted bispecific antibodies, Cross3×Trop2, Cross303×Trop2, Cross307×Trop2, Cross308×Trop2, Cross309×Trop2, Cross310×Trop2, Cross311×Trop2, Cross312×Trop2, Cross313×Trop2, Cross314×Trop2, Cross316×Trop2, Cross317×Trop2, Cross318×Trop2, Cross323×Trop2, Cross325×Trop2, Cross326×Trop2, and Cross3×PDL1, Cross303×PDL1, Cross307×PDL1, Cross308×PDL1, Cross309×PDL1, Cross310×PDL1, Cross311×PDL1, Cross312×PDL1, Cross313×PDL1, Cross314×PDL1, Cross316×PDL1, Cross317×PDL1, Cross318×PDL1, Cross323×PDL1, Cross325×PDL1, Cross326×PDL1, and control hIgG1LALA (purchased from Bio-Tech) were added and incubated at 4° C. for 30 min. 1 ml of PBS was added to the EP tube, followed by centrifugation at 3500 rpm for 5 min at 4° C. The supernatant was discarded, and the cells were washed again with PBS. After centrifugation, the supernatant was completely discarded, and the cells were resuspended with PBS at 100 μl/tube. Alexa-647-labeled goat anti-human IgG secondary antibody (purchased from Jackson lab) was added at 1 μl/tube and incubated at 4° C. in the dark for 30 min. The cells were washed twice with PBS, and the supernatant was completely discarded after centrifugation. The cells were resuspended with PBS at 200 μl/tube and assay was performed using the flow cytometry.
For orientation: A flow cytometer gives signals particle by particle.

The target in experiment [2] is T2, CD3 on CD8 T cells (Homo sapiens (Human), UniProt P07766 23-207).
T2 construct: Native CD3 complex on CD8 T cells among PBMCs; also called T cells (PBMCs gated with anti-human CD8 antibody)
As to the kind of experiment: flow cytometry, CD8 T cells in PBMCs, binding ratio % [panel A]. Here is the method: (1) PBMCs were diluted to 2×10⁶/ml with PBS and added to a 1.5 ml EP tube at 100 μl/tube, goat serum was added thereto at 10 μl/tube. The cells were blocked at 4° C. for 30 min. The serially diluted bispecific antibodies, Cross3×Trop2, Cross303×Trop2, Cross307×Trop2, Cross308×Trop2, Cross309×Trop2, Cross310×Trop2, Cross311×Trop2, Cross312×Trop2, Cross313×Trop2, Cross314×Trop2, Cross316×Trop2, Cross317×Trop2, Cross318×Trop2, Cross323×Trop2, Cross325×Trop2, Cross326×Trop2, Cross3×PDL1, Cross313×PDL1, Cross316×PDL1, Cross325×PDL1, and control hIgG1LALA (purchased from Bio-Tech) were added and incubated at 4° C. for 30 min. 1 ml of PBS was added to the EP tube, followed by centrifugation at 3500 rpm for 5 min at 4° C. The supernatant was discarded, and the system was washed again with PBS. After centrifugation, the supernatant was discarded, and the cells were resuspended with PBS at 100 μl/tube. 1 μl/tube Alexa-647-labeled goat anti-human IgG secondary antibody (purchased from Jackson lab) and 0.5 μl/tube PerCP-Cy5.5-labeled anti-human CD8 antibody were added and incubated at 4° C. in the dark for 30 min. The cells were washed twice with PBS. After centrifugation, the supernatant was discarded. The cells were resuspended with 200 μl/tube of PBS and assay is performed by flow cytometry.

Experiment [3] concerns the target T3, PDL1 protein (UniProt Q9NZQ7 19-238).
T3 construct: Bought recombinant protein
As to the kind of experiment: ELISA, coated PDL1 protein, OD450 [panel A]. Here is the method:
(3) PDL1 protein (purchased from Acro) was diluted to 2 μg/ml with PBS buffer, added to a 96-well plate at a volume of 100 μL/well, and placed at 4° C. overnight. The PBS buffer in the 96-well plate was aspirated, and the plate was washed 6 times with PBST (pH 7.2 PBS containing 0.10% Tween 20) buffer. Then, PBS/10% BSA was added at 200 μL/well and incubated at 37° C. for 2 h for blocking. The blocking solution was removed, and the plate was washed six times with PBST. Then, the to-be-tested bispecific antibodies serially diluted with PBST/0.05% BSA, Cross3×PDL1, Cross303×PDL1, Cross307×PDL1, Cross308×PDL1, Cross309×PDL1, Cross310×PDL1, Cross311×PDL1, Cross312×PDL1, Cross313×PDL1, Cross314×PDL1, Cross316×PDL1, Cross317×PDL1, Cross318×PDL1, Cross323×PDL1, Cross325×PDL1, Cross326×PDL1, and control IgG1LALA (purchased from Bio-Tech) were added at 100 μL/well, and incubated at 37° C. for 1 h. The reaction system was removed, and the plate was washed 6 times with PBST. Then, the cells were incubated at 37° C. for 1 h with HRP (horseradish peroxidase)-labeled anti-human secondary antibody (Fab specific) (purchased from Sigma) serially diluted with PBST/0.05% BSA at 100 μL/well. After the plate was washed six times with PBST, TMB (tetramethylbenzidine) was added at 80 μL/well and incubated at room temperature for 3 min. 4 M sulfuric acid was added at 80 μL/well to terminate the reaction. The absorbance was read at 450 nm using a microplate reader.

Experiment [4] addresses T2, CD3 on CD8 T cells. As to the kind of experiment: flow cytometry, CD8 T cells in PBMCs, binding ratio % [panel A]. The procedure:
PBMCs were diluted with PBS to 2×10⁶/mL and added to a 1.5 ml EP tube at a volume of 100 μL/tube, 10 μL/tube of goat serum was added thereto and incubated at 4° C. for 30 min for blocking. […] 1 mL of PBS was added to the EP tube, followed by centrifugation at 3500 rpm for 5 min at 4° C. The supernatant was discarded, and the cells were washed again with PBS. After centrifugation, the supernatant was discarded, and the cells were resuspended with 100 μl/tube PBS. 1 μl/tube Alexa-647-labeled goat anti-human secondary antibody (purchased from Jackson lab) and 0.5 μl/tube PerCP-Cy5.5-labeled anti-human CD8 antibody were added and incubated at 4° C. in the dark for 30 min. The cells were washed twice with PBS, and the supernatant was discarded after centrifugation. The cells were resuspended with […] of PBS and assayed using the flow cytometry.
The source holds these as a separate data set.

Experiment [5] deals with T4, CD3E&D protein (UniProt P04234 22-105).
T4 construct: Purchased from Acro; also called CD3 E&D antigens; CD3E&D antigen protein
Nature of the experiment: ELISA, coated CD3E&D protein, OD450 [panel C]. The procedure: In this example, the binding properties of the parental antibody Cross3 and the CD3 affinity-reduced antibody (the production method and the amino acid sequences of the heavy and light chains were shown in Example 1) were detected by ELISA. The CD3E&D protein was coated onto a 96-well plate by the inventors, and the strength of the signal after the addition of the antibody was used to determine the binding properties of the antibody and CD3E&D.
CD3E&D protein (purchased from Acro) was diluted to 2 μg/ml with PBS buffer, added to a 96-well plate at a volume of 100 μL/well, and placed at 4° C. overnight. The PBS buffer in the 96-well plate was aspirated, and the plate was washed 6 times with PBST (pH 7.2 PBS containing 0.1% Tween 20) buffer. Then, 200 μL/well PBS/10% BSA was added and incubated at 37° C. for 2 h for blocking. The blocking solution was removed, and the plate was washed six times with PBST. Then, the to-be-tested antibodies serially diluted with PBST/0.05% BSA, Cross3, Cross303, Cross307, Cross308, Cross309, Cross310, Cross311, Cross312, Cross313, Cross314, Cross316, Cross317, Cross318, Cross323, Cross325, Cross326, and control IgG1 (purchased from Bio-Tech) were added at 100 μL/well, and incubated at 37° C. for 1 h. The reaction system was removed, and the plate was washed 6 times with PBST. Then, the cells were incubated at 37° C. for 1 h with HRP (horseradish peroxidase)-labeled anti-human secondary antibody (Fab specific) (purchased from Sigma) serially diluted with PBST/0.05% BSA at 100 μL/well. The plate was washed six times with PBST, TMB (tetramethylbenzidine) was added at 80 μL/well and incubated at room temperature for 3 min. 4 M sulfuric acid was added at 80 μL/well to terminate the reaction. The absorbance was read at 450 nm using a microplate reader.
In general terms: In an ELISA, binding on a coated surface is turned into a signal by an enzyme label.

Experiment [6] concerns the target T4, CD3E&D protein. Nature of the experiment: SPR (Biacore 8K), antibody on CM5 chip, CD3 E&D antigen as analyte. Further details: Fold change: reference not given here. Here is the method:
In a Biacore 8K (Cytiva) system, the antibody was diluted to 10 μg/mL in HBS-EP running buffer and coupled to a CM5 chip (Cytiva) at a flow rate of 10 μL/min.
For orientation: In SPR one partner is held on a chip, and binding of the other changes the refractive index at the surface.

Where two headings read alike, the source gives them in different places.

As a reminder, the EC50 (read off the curve) is the midpoint of the concentration-response curve. The term Kd denotes the free concentration of one partner at which half of the binding sites on the other are occupied at equilibrium, for simple one-to-one binding. By koff is commonly meant a measure of how fast the partners let go of each other. Broadly, the kon is the second-order rate constant of association.

T4 sequence (chain, as listed by the source limits assumed, chain 1 of 2): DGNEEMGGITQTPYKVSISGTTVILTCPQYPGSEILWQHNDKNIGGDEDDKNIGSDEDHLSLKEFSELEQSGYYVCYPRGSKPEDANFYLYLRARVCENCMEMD
T4 sequence (P04234 22-105 limits assumed, chain 2 of 2): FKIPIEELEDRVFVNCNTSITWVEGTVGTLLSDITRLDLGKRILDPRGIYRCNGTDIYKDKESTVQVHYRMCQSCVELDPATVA
T2 sequence (P07766 23-207 limits assumed): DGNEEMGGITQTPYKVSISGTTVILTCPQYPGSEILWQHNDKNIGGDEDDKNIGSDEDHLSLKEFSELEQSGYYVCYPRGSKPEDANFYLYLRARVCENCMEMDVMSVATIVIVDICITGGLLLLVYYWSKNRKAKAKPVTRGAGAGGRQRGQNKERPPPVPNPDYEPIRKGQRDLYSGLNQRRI
T3 sequence (Q9NZQ7 19-238 limits assumed): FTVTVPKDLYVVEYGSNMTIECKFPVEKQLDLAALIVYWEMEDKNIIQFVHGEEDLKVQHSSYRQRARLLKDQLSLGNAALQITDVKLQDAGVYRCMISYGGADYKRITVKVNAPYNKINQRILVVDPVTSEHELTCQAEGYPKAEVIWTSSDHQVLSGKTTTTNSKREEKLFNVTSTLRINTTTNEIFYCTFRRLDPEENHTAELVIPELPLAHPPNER
T1 sequence (Q9NZQ7 19-290 limits assumed): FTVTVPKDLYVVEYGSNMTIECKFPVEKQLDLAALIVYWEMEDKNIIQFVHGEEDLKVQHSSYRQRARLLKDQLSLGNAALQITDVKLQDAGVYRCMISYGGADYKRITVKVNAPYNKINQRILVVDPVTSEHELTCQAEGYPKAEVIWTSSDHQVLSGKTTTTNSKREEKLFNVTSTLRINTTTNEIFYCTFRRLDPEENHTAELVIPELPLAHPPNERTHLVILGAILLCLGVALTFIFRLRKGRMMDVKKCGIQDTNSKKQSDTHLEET

B1: Cross313×PDL1 (bispecific antibody, human IgG1, kappa, L234A L235A)
scFv: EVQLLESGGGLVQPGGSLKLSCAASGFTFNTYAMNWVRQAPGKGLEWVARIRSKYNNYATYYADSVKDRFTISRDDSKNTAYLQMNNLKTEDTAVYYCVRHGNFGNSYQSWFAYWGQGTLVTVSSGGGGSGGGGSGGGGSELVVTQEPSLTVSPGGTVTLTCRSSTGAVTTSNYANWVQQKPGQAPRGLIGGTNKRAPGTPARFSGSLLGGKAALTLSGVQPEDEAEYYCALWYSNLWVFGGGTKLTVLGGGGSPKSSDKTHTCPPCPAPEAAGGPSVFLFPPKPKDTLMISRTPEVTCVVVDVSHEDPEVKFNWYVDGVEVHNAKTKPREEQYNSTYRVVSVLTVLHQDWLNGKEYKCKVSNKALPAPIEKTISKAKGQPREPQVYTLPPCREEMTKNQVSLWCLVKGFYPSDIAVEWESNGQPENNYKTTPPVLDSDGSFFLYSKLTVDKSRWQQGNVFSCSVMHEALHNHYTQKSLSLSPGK
heavy: QVQLVQSGAEVKKPGASVKVSCKASGYSFTGYYMHWVRQAPGQGLEWIGRINPYNGATTYSQNFKDRATMTVDTSISTAYMELSRLRSDDTAVYYCVPTGMGYFLMDYWGQGTLVTVSSASTKGPSVFPLAPSSKSTSGGTAALGCLVKDYFPEPVTVSWNSGALTSGVHTFPAVLQSSGLYSLSSVVTVPSSSLGTQTYICNVNHKPSNTKVDKKVEPKSCDKTHTCPPCPAPEAAGGPSVFLFPPKPKDTLMISRTPEVTCVVVDVSHEDPEVKFNWYVDGVEVHNAKTKPREEQYNSTYRVVSVLTVLHQDWLNGKEYKCKVSNKALPAPIEKTISKAKGQPREPQVCTLPPSREEMTKNQVSLSCAVKGFYPSDIAVEWESNGQPENNYKTTPPVLDSDGSFFLVSKLTVDKSRWQQGNVFSCSVMHEALHNHYTQKSLSLSPGK
light: DIQLTQSPSFLSASVGDRVTITCKASQDVGSAVVWYQQKPGKAPKLLIYWASTRHTGVPSRFSGSGSGTEFTLTISSLQPEDFATYFCQQFTSYPTFGQGTKLEIKRTVAAPSVFIFPPSDEQLKSGTASVVCLLNNFYPREAKVQWKVDNALQSGNSQESVTEQDSKDSTYSLSSTLTLSKADYEKHKVYACEVTHQGLSSPVTKSFNRGEC
On to B1, for which the “EC50 (read off the curve)” value was about 1 mg/L in experiment [1], about 2 mg/L in experiment [2] and about 0.2 mg/L in experiment [3].

B2: Cross323 (antibody, human IgG1, kappa, V domains shown)
VH: EVQLLESGGGLVQPGGSLKLSCAASGFTFNTYAMNWVRQAPGKGLEWVARIRSKYNNYATYYADSVKDRFTISRDDSKNTAYLQMNNLKTEDTAVYYCVRHGNFGNSYVSWFAYWGQGTLVTVSS
VL: ELVVTQEPSLTVSPGGTVTLTCRSSTGAVTTSNYANWVQQKPGQAPRGLIGGTNKRAPGTPARFSGSLLGGKAALTLSGVQPEDEAEYYCALWYPNLWVFGGGTKLTVLR
Take B2: in experiment [4], the concentration giving a half-maximal response (EC50 (read off the curve)) was about 0.3 mg/L. The “EC50 (read off the curve)” value in experiment [5] is about 0.03 mg/L. In experiment [6], this molecule returned a Fold change of 19.9, an equilibrium dissociation constant (Kd) of 3.28 nM, a dissociation rate constant (koff) of 0.0094 s⁻¹ and a kon of 2.86e+06 M⁻¹ s⁻¹.

B3: Cross325 (antibody, human IgG1, kappa, V domains shown)
VH: EVQLLESGGGLVQPGGSLKLSCAASGFTFNTYAMNWVRQAPGKGLEWVARIRSKYNNYATYYADSVKDRFTISRDDSKNTAYLQMNNLKTEDTAVYYCVRHGNFGNSYVSWFAYWGQGTLVTVSS
VL: ELVVTQEPSLTVSPGGTVTLTCRSSTGAVTTSNYANWVQQKPGQAPRGLIGGTNKRAPGTPARFSGSLLGGKAALTLSGVQPEDEAEYYCALWYSNDWVFGGGTKLTVLR
Regarding B3, the concentration giving a half-maximal response (EC50 (read off the curve)) in experiment [4] was about 0.3 mg/L. Besides, the “EC50 (read off the curve)” value in experiment [5] is about 0.03 mg/L. In experiment [6], this molecule returned a Fold change of 15.6, a Kd of 2.57 nM, an off-rate (koff) of 0.00366 s⁻¹ and a kon of 1.42e+06 M⁻¹ s⁻¹.

B4: Cross326 (antibody, human IgG1, kappa, V domains shown)
VH: EVQLLESGGGLVQPGGSLKLSCAASGFTFNTYAMNWVRQAPGKGLEWVARIRSKYNNYATYYADSVKDRFTISRDDSKNTAYLQMNNLKTEDTAVYYCVRHGNFGNSYVSWFAYWGQGTLVTVSS
VL: ELVVTQEPSLTVSPGGTVTLTCRSSTGAVTTSNYANWVQQKPGQAPRGLIGGTNKRAPGTPARFSGSLLGGKAALTLSGVQPEDEAEYYCALWYSNPWVFGGGTKLTVLR
As to B4, the “EC50 (read off the curve)” value in experiment [5] is about 0.03 mg/L. For the same molecule, in experiment [6], the Fold change came to 16.5, the Kd is 2.73 nM, the koff was 0.0386 s⁻¹ and the kon was 1.41e+07 M⁻¹ s⁻¹.

For the origin of these results see US20260125472A1 (HEFEI TG IMMUNOPHARMA, published 2026).
